Common to all, as to type: cell-based, human
The test system of assay [1] is MKN-45 and Caco-2 carcinoma cells. Description: G-CSF induced proliferation (CyQuant) with ERK1/2 or RSK inhibitors. Conditions: 10 μM inhibitor, 30 min before recombinant G-CSF. On the procedure: Proliferation: MKN-45, AGS, Caco-2 and DLD1 cells (2500 per well) were added to wells of a 96 well plate and incubated with 5-25 ng/ml of recombinant G-CSF (eBioscience) or conditioned media from MF for 48 hours. Conditioned media included a mixture of 50% media from cultured myofibroblasts and 50% fresh media for nutrients. Media from MF was taken when cells were 80% or greater confluent before passage (from approximately 1×10^6 cells). Proliferation was measured using CyQuant dye for DNA content (Life Technologies). […] Samples were read on a Tecan fluorescent plate reader (Mannedorf, Switzerland).
However, most of the studies have been performed in myeloid cells or neutrophils. Thus, we sought to examine G-CSFR signaling in MKN-45 and Caco-2 cells. […] Cells were lysed and protein levels normalized. […] A 5-fold increase in phosphorylation was found in MKN-45 and a 10-fold increase in phosphorylation was found in Caco-2 cells (FIGS. 6A and B). […] ERK1/2 or RSK inhibitors were added to some wells of cells before addition of G-CSF, and proliferation examined by CyQuant proliferation assay for DNA content.

Assay [2] concerns MKN-45 and Caco-2 cells. As to the kind of experiment: Aldefluor / CD44 staining of stem-like population by flow cytometry. Conditions: for effect on G-CSF-induced stem marker expressing cell expansion (aldehyde dehydrogenase high, CD44): treatment with ERK1/2 or RSK inhibitor before G-CSF. On the procedure: (§1) Flow Cytometry: Single-and multi-color immunostaining was performed according to standard surface and intracellular FACS staining Biolegend protocols (Biolegend, San Diego, Calif.). Anti-Ep-cam Alexa-Fluor 488 (Biolegend 9c4) was used for identification of epithelial cells. The purity of MF was analyzed by staining for CD90-PE (Biolegend Thyl) and α-smooth actin-FITC (R&D Systems 1C14206) for flow cytometry compared to isotype controls. Anti-G-CSFR-PE (clone 1 mm 741 Biolegend) and G-CSF-FITC (clone 85FSCSF eBioscience) were used for the analysis of G-CSFR surface expression and intracellular G-CSF after 4 hour exposure to Brefeldin A compared to isotype controls. Anti-proliferating cell nuclear antigen (PCNA) (clone PCNA01, Biolegend) was used as a proliferation marker. Cancer stem-like populations in carcinoma cell lines were examined by staining with Aldefluor (Stem Cell Technologies, Vancouver, BC) and anti-CD44-APC (Biolegend clone BJ18) using the manufacturer's Aldefluor staining protocol compared to isotype control. All samples were analyzed on a Guava easyCyte 8HT flow cytometer (Millipore, Bellerica, Md.), and analyzed using FCS Express software (DeNovo Software, Los Angeles, Calif.).
Therefore, assessment of MKN-45 and Caco-2 cells for a similar population was undertaken. […] Cells were also stained with CD44, since in gastric and colon cancers CD44 has also been shown on cells with stem-like features (Huang et al., 2009; Katsuno et al., 2012; Su et al., 2011b; Takaishi et al., 2009; Wakamatsu et al., 2012). To examine Aldefluor staining, cells were gated on the CD44 positive population. Then, another gate was set using the diethylaminobenzaldehyde (DEAB) inhibitor of aldehyde dehydrogenase as a negative control (FIG. 5A). […] G-CSF treatment expanded this population from 6% to 16% of the cell population (FIGS. 5C). Further, 48 hour treatment of MKN-45 and Caco-2 cells with 10 ng/ml of G-CSF led to an approximately 10% increase in the stem-like Aldefluor^highCD44^+population (FIG. 5D) with both cell types.
In parallel, ERK1/2 and RSK inhibition were also examined for effects on stem-like populations.

Assay [3] has as its system Caco-2 and DLD1 colon carcinoma cells. Description: CyQuant proliferation assay for DNA content, colon carcinoma cells. Conditions: recombinant G-CSF 5-25 ng/ml, after 4 days, Caco-2 and DLD1, dose dependent. On the procedure: (§2) Proliferation: MKN-45, AGS, Caco-2 and DLD1 cells (2500 per well) were added to wells of a 96 well plate and incubated with 5-25 ng/ml of recombinant G-CSF (eBioscience) or conditioned media from MF for 48 hours. Conditioned media included a mixture of 50% media from cultured myofibroblasts and 50% fresh media for nutrients. Media from MF was taken when cells were 80% or greater confluent before passage (from approximately 1×10^6 cells). Proliferation was measured using CyQuant dye for DNA content (Life Technologies). Other samples were incubated with 10 μM ERK activation inhibitor peptide 1 or RSK inhibitor SL0101 (EMD Millipore) for 30 min before addition of recombinant G-CSF. Samples were read on a Tecan fluorescent plate reader (Mannedorf, Switzerland).
(§3) MKN-45 and AGS gastric carcinoma cells and Caco-2 and DLD1 colon carcinoma cells were incubated with increasing doses of recombinant G-CSF (5-25 ng/ml), which were chosen based on reports of serum concentrations in patients (Morstyn et al., 1989). After 4 days (approximately 2 doubling times), proliferation was measured using the CyQuant fluorescent proliferation assay for DNA content. G-CSF treated cells were compared to untreated control cells. […] To further confirm G-CSF induction of cell proliferation, G-CSF treated cells were stained intracellularly for proliferating cell nuclear antigen (PCNA). […]

For assay [4], the system named is ERK1/2 and RSK1 phosphorylation in Caco-2 cells. Description: Luminex signaling bead array, ERK1/2 and RSK1 phosphorylation, Caco-2. Conditions: recombinant G-CSF 10 ng/ml. On the procedure:
(§4) Luminex Arrays: G-CSF levels were measured in cell culture supernatants by singleplex fluorescent bead based array (Life Technologies) according to manufacturer's instructions. ERK1/2 and RSK phosphorylation were measured by Milliplex MAPmates phospho-ERK1/2 and RSK arrays (EMD Millipore, Billerica Mass.) according to the manufacturer protocol. All samples were analyzed on a Luminex 200 machine.
(§5) Some studies have shown that G-CSFR signaling induces signaling pathways that lead to cell proliferation (Kamezaki et aL, 2005; Wang et al., 2008). However, most of the studies have been performed in myeloid cells or neutrophils. Thus, we sought to examine G-CSFR signaling in MKN-45 and Caco-2 cells. Cells were pre-incubated with serum free media for 2 hours before treatments and recombinant G-CSF (10 ng/ml) was added to wells in 15 min intervals. Cells were lysed and protein levels normalized. […] A 5-fold increase in phosphorylation was found in MKN-45 and a 10-fold increase in phosphorylation was found in Caco-2 cells (FIGS. 6A and B). […] Since we found phosphorylation of these signaling molecules after G-CSF treatment, we further sought to characterize the role of these pathways in the increased cell proliferation resulting from G-CSF treatment observed in MKN-45 and Caco-2 carcinoma cells shown in FIG. 3. […]

Assay [5] deals with MKN-45 and Caco-2 cells. As to the kind of experiment: Fluoroblok migration assay (8 micron pores, CFSE-labeled cells). Conditions: 10 ng/ml G-CSF in bottom wells, 4 hours. On the procedure:
Migration: MKN-45 and Caco-2 cells were stained with carboxyfluorein succinimidyl ester (CFSE) (Life Technologies) and added to the top of Fluoroblok 96 well plates with […]. Serum free media, media with 10% FBS, recombinant G-CSF, or MF supernatants were added to the bottom of the wells. G-CSF neutralizing antibodies (1 μg/ml) were added to some cultures. The fluorescence of migrated cells was measured after 4 hours of incubation at 37° C. on a Tecan plate reader.
Given the ability of G-CSF to mobilize bone marrow derived hematopoietic cells during systemic administration (Held and Gundert-Remy, 2010), we assessed whether it could increase the migratory ability, and therefore the malignant potential, of gastric and colon cancer cells. MKN-45 and Caco-2 were serum starved overnight, fluorescently labeled with CFSE, and plated on FluorBlok™ plates with 8 micron pores and serum free media in the top of the wells. The bottom wells were filled with serum free media, serum free media containing 10 ng/ml of G-CSF or serum containing media (positive control). […] Both cell types migrated through the pores toward serum as a positive control, and at even higher rates toward G-CSF. […]

Assay [6] concerns ERK1/2 and RSK1 phosphorylation in MKN-45 cells. As to the kind of experiment: Luminex signaling bead array, ERK1/2 and RSK1 phosphorylation, MKN-45. Conditions: recombinant G-CSF 10 ng/ml. The protocol: as §4, §5
In assay [7] the test system is MKN-45 and AGS gastric carcinoma cells. As to the kind of experiment: CyQuant proliferation assay for DNA content, gastric carcinoma cells. Conditions: recombinant G-CSF 5-25 ng/ml, after 4 days, dose dependent. The protocol: as §2, §3
Assay [8] deals with gastric and colon carcinoma cells. As to the kind of experiment: Intracellular PCNA staining by flow cytometry. Conditions: G-CSF treated cells, both cell types. The protocol:
as §1, with “Cancer stem-like populations in carcinoma cell lines were examined by staining with Aldefluor (Stem Cell Technologies, Vancouver, BC) and anti-CD44-APC (Biolegend clone BJ18) using the manufacturer's Aldefluor staining protocol compared to isotype control.” left out
MKN-45 and AGS gastric carcinoma cells and Caco-2 and DLD1 colon carcinoma cells were incubated with increasing doses of recombinant G-CSF (5-25 ng/ml), which were chosen based on reports of serum concentrations in patients (Morstyn et al., 1989). After 4 days (approximately 2 doubling times), proliferation was measured using the CyQuant fluorescent proliferation assay for DNA content. […]

A value given as a limit tells only on which side of the number the result lay.

As for `CC(=O)O[C@@H]1[C@@H](OC(C)=O)[C@@H](O)[C@H](Oc2c(-c3ccc(O)cc3)oc3cc(O)cc(O)c3c2=O)O[C@H]1C` [RSK inhibitor, SL0101, reference compound], the “effect on G-CSF induced proliferation” value in assay [1] is “drastically inhibited”. In the assay with MKN-45 and Caco-2 cells [2], the “effect on G-CSF-induced stem marker expressing cell expansion (aldehyde dehydrogenase high, CD44)” value is “completely abrogated”.

On to “ERK activation inhibitor peptide 1 [ERK1/2 inhibitor, reference compound]”, for which, in assay [1], the “effect on G-CSF induced proliferation” value was “drastically inhibited”. Moreover, in the assay on MKN-45 and Caco-2 cells [2], the “effect on G-CSF-induced stem marker expressing cell expansion (aldehyde dehydrogenase high, CD44)” value was “completely abrogated”.

B1: G-CSF: recombinant G-CSF (eBioscience), pro-inflammatory cytokine (protein, UniProt P09920 31-208, looked up)
Granulocyte …: VPLVTVSALPPSLPLPRSFLLKSLEQVRKIQASGSVLLEQLCATYKLCHPEELVLLGHSLGIPKASLSGCSSQALQQTQCLSQLHSGLCLYQGLLQALSGISPALAPTLDLLQLDVANFATTIWQQMENLGVAPTVQPTQSAMPAFTSAFQRRAGGVLAISYLQGFLETARLALHHLA
Take B1: the “increase in proliferation compared to untreated cells” value in assay [3] is given as “up to 4.5 fold”; in assay [7] it was at most 2.5 fold. Moreover, the figures for the “increase in ERK1/2 and RSK1 phosphorylation” value in assay [4] and in assay [6] were 10 fold and 5 fold, respectively. Moreover, the “incubation time of peak ERK1/2 and RSK1 phosphorylation” value in assay [4] and in assay [6] was 30 min throughout. Moreover, the “increased migration compared to serum containing media” value in the assay on MKN-45 and Caco-2 cells [5] is listed as 1.5 fold. Besides, in the assay on MKN-45 and Caco-2 cells [5], the “increased migration compared to serum free media” value is reported as at most 4 fold. Also, the “increase in the stem-like Aldefluor high CD44+ population” value with MKN-45 and Caco-2 cells [2] (48 hour treatment, 10 ng/ml G-CSF, MKN-45 and Caco-2 (both cell types)) is “approximately 10%”. Besides, in the assay with MKN-45 and Caco-2 cells [2] (MKN-45, gated on CD44 positive, untreated 6%), the “stem-like Aldefluor population, share of the cell population after G-CSF treatment” value was 16%. In addition, the “increase in PCNA staining compared to untreated cells” value in assay [8] is “greater than 2 fold”.

The values above are taken from patent US20160368980A1, “INHIBITION OF GRANULOCYTE COLONY STIMULATING FACTOR IN THE TREATMENT OF CANCER” (STC.UNM, priority 2014, published 2016).
